{
  "source": "paper PMC9351452",
  "about": "(Proceedings of the National Academy of Sciences of the …, 2022)",
  "key": {"[1]": {"molecular_target": "T1, DCCP-R (double-cubane cluster protein reductase) (Carboxydothermus hydrogenoformans, UniProt Q3AET8)", "T1 sequence (Q3AET8 1-245)": "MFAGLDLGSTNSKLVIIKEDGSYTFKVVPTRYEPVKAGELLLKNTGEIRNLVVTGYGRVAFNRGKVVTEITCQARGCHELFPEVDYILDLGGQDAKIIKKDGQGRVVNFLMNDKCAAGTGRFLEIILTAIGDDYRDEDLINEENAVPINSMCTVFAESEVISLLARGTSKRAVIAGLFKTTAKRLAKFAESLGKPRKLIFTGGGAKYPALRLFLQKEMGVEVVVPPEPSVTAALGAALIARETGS", "assay": "isothermal titration calorimetry", "format": "binding"}, "DCCP:DCCP-R complex": {"molecular_target": "T2, DCCP:DCCP-R complex (Carboxydothermus hydrogenoformans, UniProt Q3AET8)", "T2 sequence (Q3AET8 1-245)": "T1 sequence (Q3AET8 1-245)", "T2 sequence (Q3AET9 1-421 partner)": "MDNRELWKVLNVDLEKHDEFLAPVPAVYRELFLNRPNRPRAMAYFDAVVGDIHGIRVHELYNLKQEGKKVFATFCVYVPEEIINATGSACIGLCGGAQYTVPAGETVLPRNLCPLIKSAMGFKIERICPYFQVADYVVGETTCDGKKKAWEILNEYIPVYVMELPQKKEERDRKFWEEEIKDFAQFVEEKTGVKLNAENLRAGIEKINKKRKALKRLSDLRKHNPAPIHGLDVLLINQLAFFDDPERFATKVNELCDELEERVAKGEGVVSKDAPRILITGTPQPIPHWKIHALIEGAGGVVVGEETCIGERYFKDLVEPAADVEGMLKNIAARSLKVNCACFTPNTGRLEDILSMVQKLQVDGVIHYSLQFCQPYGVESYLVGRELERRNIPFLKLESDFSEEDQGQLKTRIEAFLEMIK", "assay": "isothermal titration calorimetry", "format": "binding", "settings": "Mg2+; 50 mM Tris-HCl pH 8.0, 25 °C, anoxic; DCCP present in cell; reduced DCCP-R"}, "[2]": {"molecular_target": "double-cubane cluster protein (DCCP)", "assay": "SEC"}, "[3]": {"molecular_target": "double-cubane cluster protein (DCCP)", "assay": "SEC", "remark": "listed apart in the source"}, "[4]": {"molecular_target": "double-cubane cluster protein (DCCP)", "assay": "ITC"}, "[5]": {"molecular_target": "double-cubane cluster protein (DCCP)", "assay": "ITC", "remark": "listed apart in the source"}, "[6]": {"molecular_target": "double-cubane cluster protein reductase (DCCP-R)", "assay": "SEC"}, "[7]": {"molecular_target": "double-cubane cluster protein reductase (DCCP-R) from Carboxydothermus hydrogenoformans (Carboxydothermus hydrogenoformans)", "assay": "SEC"}},
  "note": "Read-outs that look alike come from different tables or passages of the source.",
  "data": [
    {"molecule": "Nc1ncnc2c1ncn2[C@@H]1O[C@H](COP(=O)(O)OP(=O)(O)NP(=O)(O)O)[C@@H](O)[C@H]1O", "note": "[MgADPNP, 5′-adenylyl β, γ-imidodiphosphate]", "values": [
      {"measurement": "Kd", "setting": "[1]", "value": "15 ± 0.5", "unit": "µM"},
      {"measurement": "Kd", "setting": "DCCP:DCCP-R complex", "value": "7.1 ± 1.1", "unit": "µM"}
    ]},
    {"molecule": "Nc1ncnc2c1ncn2[C@@H]1O[C@H](COP(=O)(O)OP(=O)(O)O)[C@@H](O)[C@H]1O", "note": "[MgADP]", "values": [
      {"measurement": "Kd", "setting": "[1]", "value": "42 ± 7", "unit": "µM"}
    ]},
    {"molecule": "double-cubane cluster protein (DCCP) (enzyme)", "values": [
      {"measurement": "stoichiometry N", "setting": "[2]", "value": 2},
      {"measurement": "stoichiometry N", "setting": "[3]", "value": 2}
    ]},
    {"molecule": "double-cubane cluster protein reductase (DCCP-R) (enzyme)", "values": [
      {"measurement": "dH", "setting": "[4]", "value": 5.9, "unit": "kcal/mol"},
      {"measurement": "dH", "setting": "[5]", "value": -31.5, "unit": "kcal/mol"},
      {"measurement": "stoichiometry N", "setting": "[6]", "value": 2}
    ]},
    {"molecule": "double-cubane cluster protein reductase (DCCP-R) from Carboxydothermus hydrogenoformans (enzyme)", "values": [
      {"measurement": "stoichiometry N", "setting": "[7]", "value": 2}
    ]}
  ]
}
